Target: T1, integrin-linked kinase (ILK) ankyrin repeat domain (ARD) (UniProt Q13418 1-171)
T1 sequence: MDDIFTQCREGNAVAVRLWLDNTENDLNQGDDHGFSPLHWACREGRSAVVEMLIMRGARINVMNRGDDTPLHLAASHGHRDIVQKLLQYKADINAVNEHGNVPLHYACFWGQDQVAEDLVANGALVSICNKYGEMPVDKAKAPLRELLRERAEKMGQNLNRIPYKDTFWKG
Experiment: ITC

B1: PINCH LIM1 domain (domain or fragment)
chain: MANALASATCERCKGGFAPAEKIVNSNGELYHEQCFVCAQCFQQFPEGLFYEFEGRKYCEHDFQMLFAPC
Kd: ~68 nM

From publication PMC2873192 (Journal of the American Chemical Society, 2009)
